Measurements reported in publication PMC11310195.
pKd, pKi: −log10 of the molar value. Values joined by “and” are separate entries in the source; they are usually repeats but may differ in a detail not shown here. Equal values may be shown once.

Tests used:
[1] = target: fluorescein-labelled Pdcd4 N-terminal domain (residues 1-156) (human) (UniProt Q53EL6); experiment: fluorescence polarisation; fluorescence anisotropy binding assay: 20 nM FL-Pdcd4-NTD, 40S titrated, with or without eIFs (1 uM eIFs 1, 1A, 5, 550 nM eIF2-TC and eIF3); 20 mM Tris-acetate pH 7.5, 70 mM KCl, 2 mM MgCl2, 0.1 mM spermidine, 1 mM DTT, 10% glycerol, 0.1 mg/ml BSA, 0.5 mM ATP-Mg; 37 C 10 min, then over 20 min at room temperature; fraction bound fitted with a quadratic equation
[2] = target: 40S small ribosomal subunit (salt-washed) (human) (UniProt P23396); experiment: fluorescence polarisation; anisotropy competition: 20 nM FL-Pdcd4-NTD + 50 nM 40S competed off by unlabeled Pdcd4 or its variants; 37 °C 10 min, then over 20 min at room temperature; buffer of the native gel assay
[3] = target: 40S small ribosomal subunit (salt-washed) (human) (UniProt P23396); experiment: fluorescence polarisation; fluorescence anisotropy competition assay in solution: 20 nM FL-Pdcd4-NTD + 50 nM 40S competed off by 0-1000 nM unlabeled Pdcd4 or its variants; Kd of the labeled NTD set to 5 nM; same buffer as the native gel assay; 10 min at 37 C, then over 20 min at room temperature
[4] = target: 43S pre-initiation complex (40S + eIFs 1, 1A, 5, 3j, eIF2-TC and eIF3) (human) (UniProt P23396); experiment: fluorescence polarisation; anisotropy binding: 20 nM FL-Pdcd4-NTD with various amounts of 40S, in the absence or presence of 43S components (1 μM eIFs 1, 1A, 5, 550 nM eIF2-TC and eIF3); buffer of the native gel assay
[5] = target: 40S small ribosomal subunit (salt-washed) (human) (UniProt P23396); experiment: fluorescence polarisation; anisotropy binding: 20 nM FL-Pdcd4-NTD with various amounts of 40S in the presence of saturating eIF1 and eIF1A
[6] = target: 43S pre-initiation complex (40S + eIFs 1, 1A, 5, 3j, eIF2-TC and eIF3) (human) (UniProt P23396); experiment: native gel or EMSA; 100 nM fluorescein-labeled Pdcd4 with 250 nM 40S, 43S or 48S; 37 °C 10 min; 20 mM Tris-acetate pH 7.5, 70 mM KCl, 2 mM MgCl2, 0.1 mM spermidine, 1 mM DTT, 10% glycerol, 0.1 mg/ml BSA, 0.5 mM ATP-Mg; 1% agarose gel in THEM buffer, 4 °C

| pKd [1] | pKi [3] | Substance | other results |
| --- | --- | --- | --- |
| 7.15 | – | 40S subunit with saturating eIF1 and eIF1A (from UniProt P23396 1-243; P41567 1-113; P47813 1-144) (complex) | – |
| – | 6.06 and 6.10 and 6.08 | Pdcd4 V123A/W124A (from UniProt Q53EL6 1-469) (natural protein) | – |
| – | 7.67 and 7.69 and 7.70 | Pdcd4-NTD (residues 1-156), unlabeled (from UniProt Q53EL6 1-156) (domain or fragment) | pKi [2]: 7.68 |

The remaining lines, values behind:

| Substance | pKd [1] | pKi [3] | other results |
| --- | --- | --- | --- |
| 43S pre-initiation complex (40S with eIF1, eIF1A, eIF5, eIF2 ternary complex and eIF3) (from UniProt P23396 1-243; P41567 1-113; P47813 1-144; P55010 1-431; P55884 158-814; O75821 1-320; Q13347 1-325; O75822 1-258) | 5.52 | – | – |
| Pdcd4 (programmed cell death 4), wild type, residues 1-469 (from UniProt Q53EL6 1-469) (natural protein) | – | – | pKi [2]: 7.64 |
| Pdcd4 K114A/K115A (from UniProt Q53EL6 1-469) (natural protein) | – | 5.80 and 5.86 and 5.83 | – |
| fluorescein-labeled Pdcd4-NTD (FL-Pdcd4-NTD, residues 1-156) (from UniProt Q53EL6 1-156) (domain or fragment) | – | – | fold reduction in affinity (against the 40S alone) [4]: > 100 fold; fold reduction in affinity (against the 40S alone) [5]: > 10 fold; percent binding compared to the 40S lane [6]: < 20% |
| fluorescently modified recombinant Pdcd4 (FL-Pdcd4), full length (from UniProt Q53EL6 1-469) (natural protein) | – | – | percent binding compared to the 40S lane [6]: < 20% |
| human 40S small ribosomal subunit (from UniProt P23396 1-243) (complex) | 8.30 | – | – |
| wild-type Pdcd4 (residues 1-469), unlabeled (from UniProt Q53EL6 1-469) (natural protein) | – | 7.61 and 7.68 and 7.63 | – |
